Results on one molecule are retold here after publication PMC9273615, “Regulation of AUXIN RESPONSE FACTOR condensation and nucleo-cytoplasmic partitioning” (Nature Communications, 2022).

The target in experiment [1] is T1, GST-AFF1 (AUXIN RESPONSE FACTOR F-BOX1, At3g49150) (Arabidopsis thaliana (Mouse-ear cress), UniProt Q9M3B7).
T1 chain: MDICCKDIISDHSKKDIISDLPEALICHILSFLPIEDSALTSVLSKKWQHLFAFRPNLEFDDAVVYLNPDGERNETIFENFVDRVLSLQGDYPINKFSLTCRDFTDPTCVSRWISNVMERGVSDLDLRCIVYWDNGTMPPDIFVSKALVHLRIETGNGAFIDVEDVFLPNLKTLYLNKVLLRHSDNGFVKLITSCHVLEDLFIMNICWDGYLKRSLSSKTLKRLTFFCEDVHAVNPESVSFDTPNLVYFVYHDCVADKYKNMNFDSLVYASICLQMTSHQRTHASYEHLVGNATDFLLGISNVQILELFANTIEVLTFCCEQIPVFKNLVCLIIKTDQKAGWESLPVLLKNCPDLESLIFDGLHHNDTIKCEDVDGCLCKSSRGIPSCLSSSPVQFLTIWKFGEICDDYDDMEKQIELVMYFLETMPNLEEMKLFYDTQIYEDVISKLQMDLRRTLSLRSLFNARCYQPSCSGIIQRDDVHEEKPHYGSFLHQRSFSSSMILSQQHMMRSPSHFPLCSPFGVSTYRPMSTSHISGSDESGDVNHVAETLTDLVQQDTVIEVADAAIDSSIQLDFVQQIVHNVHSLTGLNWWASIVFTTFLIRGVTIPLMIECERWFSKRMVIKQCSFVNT
In words: GST pull-down with immunoblot.

Experiment [2] addresses T2, GST-AFF1 (AUXIN RESPONSE FACTOR F-BOX1, At3g49150) (Arabidopsis thaliana, UniProt Q9M3B7 1-630).
T2 construct: AUXIN RESPONSE FACTOR F-BOX1 (AFF1), F-box protein encoded by At3g49150, Arabidopsis thaliana; also called GST-AFF1 recombinant protein; not shown: GST, N-terminal, kept
T2 sequence (looked up): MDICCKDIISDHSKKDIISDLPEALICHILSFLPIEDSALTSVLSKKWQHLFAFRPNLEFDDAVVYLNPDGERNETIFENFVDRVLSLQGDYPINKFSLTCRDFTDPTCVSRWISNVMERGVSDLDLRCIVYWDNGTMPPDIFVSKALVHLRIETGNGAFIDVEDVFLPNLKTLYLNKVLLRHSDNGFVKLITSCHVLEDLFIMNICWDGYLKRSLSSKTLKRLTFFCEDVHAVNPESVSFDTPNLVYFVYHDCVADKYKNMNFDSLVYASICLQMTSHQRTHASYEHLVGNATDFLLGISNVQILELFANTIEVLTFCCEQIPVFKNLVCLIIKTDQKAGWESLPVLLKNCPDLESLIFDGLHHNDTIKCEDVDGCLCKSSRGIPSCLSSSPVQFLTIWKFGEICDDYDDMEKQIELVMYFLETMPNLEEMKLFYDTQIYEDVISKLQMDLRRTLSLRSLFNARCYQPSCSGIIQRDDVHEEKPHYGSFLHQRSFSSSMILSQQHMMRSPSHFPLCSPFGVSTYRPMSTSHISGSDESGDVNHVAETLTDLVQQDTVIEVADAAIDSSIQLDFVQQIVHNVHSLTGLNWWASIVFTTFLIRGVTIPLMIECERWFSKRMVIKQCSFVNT
In words: pull-down; 2 μg GST fusion immobilised on glutathione agarose, mixed with 2 μg His-ASK1, 4 °C, 2 hr; six washes; immunoblot with anti-His and anti-GST. Particulars: both partners purified.

B1: His-ASK1 (ARABIDOPSIS SKP1-LIKE 1) (natural protein, UniProt Q39255 1-160, looked up)
chain: MSAKKIVLKSSDGESFEVEEAVALESQTIAHMVEDDCVDNGVPLPNVTSKILAKVIEYCKRHVEAAASKAEAVEGAATSDDDLKAWDADFMKIDQATLFELILAANYLNIKNLLDLTCQTVADMIKGKTPEEIRTTFNIKNDFTPEEEEEVRRENQWAFE
notes: ARABIDOPSIS SKP1-LIKE (ASK1), Arabidopsis thaliana; not shown: His, N-terminal, kept
For the molecule B1, the binding result in experiment [1] and in experiment [2] was “binds” each time.
